How the values were obtained:
[1] = target: T1, human ClC-Kb chloride channel (human, UniProt P51801 1-687); assay: inferred from co-expression (currents, colocalisation); no direct binding assay
T1 construct: whole, on cells; Expressed from cRNA in Xenopus oocytes or from cDNA in tsA201 cells; also called CIC-Kb; CLCNKB
T1 sequence (looked up): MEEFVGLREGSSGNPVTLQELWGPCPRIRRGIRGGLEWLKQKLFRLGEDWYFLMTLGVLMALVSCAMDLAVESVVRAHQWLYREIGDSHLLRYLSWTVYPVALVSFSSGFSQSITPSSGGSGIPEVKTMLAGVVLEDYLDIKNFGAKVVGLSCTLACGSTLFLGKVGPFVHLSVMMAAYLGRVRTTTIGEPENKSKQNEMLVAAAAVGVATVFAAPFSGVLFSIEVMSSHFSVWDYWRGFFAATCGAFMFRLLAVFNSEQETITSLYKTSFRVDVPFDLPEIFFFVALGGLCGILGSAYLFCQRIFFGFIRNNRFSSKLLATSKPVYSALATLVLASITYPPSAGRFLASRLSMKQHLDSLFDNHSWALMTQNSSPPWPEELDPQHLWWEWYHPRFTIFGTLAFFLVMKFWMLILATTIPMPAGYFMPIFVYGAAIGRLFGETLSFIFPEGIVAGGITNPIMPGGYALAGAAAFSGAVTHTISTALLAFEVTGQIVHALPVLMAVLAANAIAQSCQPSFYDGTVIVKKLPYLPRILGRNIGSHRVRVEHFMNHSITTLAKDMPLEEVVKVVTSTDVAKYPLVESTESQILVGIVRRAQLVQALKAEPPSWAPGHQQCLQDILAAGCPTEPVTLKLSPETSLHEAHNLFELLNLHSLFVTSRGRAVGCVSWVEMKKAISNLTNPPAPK

[2] = target: T2, human ClC-Ka chloride channel (human, UniProt P51800 1-687); assay: inferred from co-expression (currents, surface expression, colocalisation); no direct binding assay
T2 construct: whole, on cells; Expressed from cRNA in Xenopus oocytes or from cDNA in tsA201 cells; also called CIC-Ka; CLCNKA
T2 sequence (looked up): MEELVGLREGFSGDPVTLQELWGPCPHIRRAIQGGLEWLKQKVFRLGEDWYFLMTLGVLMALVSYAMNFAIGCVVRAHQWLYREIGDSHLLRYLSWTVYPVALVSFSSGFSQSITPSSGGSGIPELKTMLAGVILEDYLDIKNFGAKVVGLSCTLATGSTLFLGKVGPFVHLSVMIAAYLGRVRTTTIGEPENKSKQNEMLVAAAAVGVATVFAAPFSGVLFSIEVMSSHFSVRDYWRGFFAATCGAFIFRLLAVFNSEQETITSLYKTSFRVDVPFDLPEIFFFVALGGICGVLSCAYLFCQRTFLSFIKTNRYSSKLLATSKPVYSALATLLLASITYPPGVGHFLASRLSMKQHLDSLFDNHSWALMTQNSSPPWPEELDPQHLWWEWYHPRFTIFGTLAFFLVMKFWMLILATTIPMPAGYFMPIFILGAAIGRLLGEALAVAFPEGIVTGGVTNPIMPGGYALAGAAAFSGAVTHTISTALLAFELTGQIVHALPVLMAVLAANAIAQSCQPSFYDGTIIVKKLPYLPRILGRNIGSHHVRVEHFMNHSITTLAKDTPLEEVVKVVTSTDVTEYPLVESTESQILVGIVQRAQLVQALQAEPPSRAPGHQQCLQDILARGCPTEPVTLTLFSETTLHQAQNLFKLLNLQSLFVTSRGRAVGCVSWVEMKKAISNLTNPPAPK

binding result [1]: binds | binding result [2]: binds
B1: barttin (BSND protein), wild type, human (other)
chain: MADEKTFRIGFIVLGLFLLALGTFLMSHDRPQVYGTFYAMGSVMVIGGIIWSMCQCYPKITFVPADSDFQGILSPKAMGLLENGLAAEMKSPSPQPPYVRLWEEAAYDQSLPDFSHIQMKVMSYSEDHRSLLAPEMGQPKLGTSDGGEGGPGDVQAWMEAAVVIHKGSDESEGERRLTQSWPGPLACPQGPAPLASFQDDLDMDSSEGSSPNASPHDREEACSPQQEPQGCRCPLDRFQDFALIDAPTLEDEPQEGQQWEIALPNNWQRYPRTKVEEKEASDTGGEEPEKEEEDLYYGLPDGAGDLLPDKELGFEPDTQG
notes: Expressed in Xenopus oocytes, tsA201 cells or other transfected cells
